In article PMC7870846, “Incorporation of sensing modalities into de novo designed fluorescence-activating proteins” (Nature Communications, 2021):
No end group written: not given here.

What was measured:
Assay in all cases: other fluorescence titration; MBP-tagged fragment titrated into its complementary MBP-tagged fragment; 25.0 uM DFHBI-1T; high-salt Tev cleavage buffer (25.0 mM Tris, 100 mM NaCl, pH 8.00); ex 468 nm, em 530 nm; estimated Kd, signal did not plateau
Details in all cases: both partners purified
[1] = target: T1, MBP-tagged split mFAP fragment m16
T1 chain: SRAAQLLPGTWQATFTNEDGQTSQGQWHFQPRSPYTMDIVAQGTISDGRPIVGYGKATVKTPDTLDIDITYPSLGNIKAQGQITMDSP

[2] = target: T2, MBP-tagged split mFAP fragment m14
T2 chain: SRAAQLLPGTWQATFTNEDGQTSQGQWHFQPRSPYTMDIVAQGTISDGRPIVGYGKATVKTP

[3] = target: T3, MBP-tagged split mFAP fragment m17
T3 chain: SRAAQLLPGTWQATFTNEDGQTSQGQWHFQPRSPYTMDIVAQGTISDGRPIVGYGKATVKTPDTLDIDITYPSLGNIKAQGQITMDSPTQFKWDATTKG

Q: For TQFKWDATTKGENDFHGRLTGTLQRQE (domain or fragment, not fully specified) [MBP-tagged split mFAP fragment m78], which Kd [1] is on record?
A: ≥ 232 µM

B1: MBP-tagged split mFAP fragment m58 (domain or fragment)
chain: DTLDIDITYPSLGNIKAQGQITMDSPTQFKWDATTKGENDFHGRLTGTLQRQE
modifications: not fully specified
Q: How did the Kd [2] turn out when B1 was run?
A: ≥ 22 µM

Q: For ENDFHGRLTGTLQRQE (domain or fragment, not fully specified) [MBP-tagged split mFAP fragment m8], which Kd [3] is on record?
A: ≥ 354 µM
